# Assay results as given in patent US20160046675A1 (US Dept. of Health and Human Services, published 2016).
# B1: AM22 monoclonal antibody (antibody, V domains shown)
# VH: QVQLVQSGAEVKKPGATVKVSCKISGHTLIKLSIHWVRQAPGKGLEWMGGYEGEVDEIFYAQKFQHRLTVIADTATDTVYMELGRLTSDDTAVYFCGTLGVTVTEAGLGIDDYWGQGTLVTVSS
# VL: EIVLTQSPGTLSLSPGERATLSCRASQIVSRNHLAWYQQKPGQAPRLLIFGASSRATGIPVRFSGSGSGTDFTLTINGLAPEDFAVYYCLSSDSSIFTFGPGTKVDFKR
# Target: RSV F glycoprotein on RSV-infected HEp-2 cells and on RSV virions (respiratory syncytial virus; strain not …, UniProt P03420 26-109; P03420 137-574)
# Assay: cell-based or functional assay
# Chain of RSV F glycoprotein on RSV-infected HEp-2 cells and on RSV virions (P03420 26-109, chain 1 of 2): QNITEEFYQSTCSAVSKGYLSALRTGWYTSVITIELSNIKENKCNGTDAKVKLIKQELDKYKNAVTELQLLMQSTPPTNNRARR
# Chain of RSV F glycoprotein on RSV-infected HEp-2 cells and on RSV virions (P03420 137-574, chain 2 of 2): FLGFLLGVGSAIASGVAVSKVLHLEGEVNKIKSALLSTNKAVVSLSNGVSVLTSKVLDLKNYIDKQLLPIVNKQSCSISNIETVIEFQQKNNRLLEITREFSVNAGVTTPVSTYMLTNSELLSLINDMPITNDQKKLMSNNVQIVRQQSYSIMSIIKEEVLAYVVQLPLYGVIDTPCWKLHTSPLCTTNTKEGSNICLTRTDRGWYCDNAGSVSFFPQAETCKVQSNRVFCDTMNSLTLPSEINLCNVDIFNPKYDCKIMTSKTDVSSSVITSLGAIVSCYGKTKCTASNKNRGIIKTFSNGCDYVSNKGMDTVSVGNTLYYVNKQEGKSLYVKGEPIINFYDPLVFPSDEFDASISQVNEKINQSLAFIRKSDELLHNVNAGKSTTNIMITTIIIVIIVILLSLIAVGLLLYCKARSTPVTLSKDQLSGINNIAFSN
binder,measurement,value
B1,"RSV neutralization (flow cytometry, RSV-GFP on HEp-2 cells)",~50 fold (potency relative to palivizumab)
